In article PMC4168798 (ACS Chemical Biology, 2014):

T1: Bcl-w (c-myc-tagged, without the C-terminal trans-membrane region) (human)
T1 chain: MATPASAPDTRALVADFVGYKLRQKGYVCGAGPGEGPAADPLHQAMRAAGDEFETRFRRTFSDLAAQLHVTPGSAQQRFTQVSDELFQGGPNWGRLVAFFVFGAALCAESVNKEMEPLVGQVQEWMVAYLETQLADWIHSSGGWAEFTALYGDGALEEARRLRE

T2: Bfl-1 (c-myc-tagged, without the C-terminal trans-membrane region) (human)
T2 sequence (Q16548 whole entry, looked up): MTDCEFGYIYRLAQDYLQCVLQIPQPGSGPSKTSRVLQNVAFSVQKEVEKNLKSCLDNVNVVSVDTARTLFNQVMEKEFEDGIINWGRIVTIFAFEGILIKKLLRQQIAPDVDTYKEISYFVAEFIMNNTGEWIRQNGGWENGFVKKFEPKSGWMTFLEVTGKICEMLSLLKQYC

B1: Kaposi sarcoma herpesvirus Bcl-2 (domain or fragment)
chain: MDEDVLPGEVLAIEGIFMACGLNEPEYLYHPLLSPIKLYITGLMRDKESLFEAMLANVRFHSTTGINQLGLSMLQVSGDGNMNWGRALAILTFGSFVAQKLSNEPHLRDFALAVLPVYAYEAIGPQWFRARGGWRGLKAYCTQVLTRRRGRR

Tests used:
Test in all cases: fluorescence polarisation
[1] = biological target: T1, Bcl-w (c-myc-tagged, without the …)
[2] = biological target: B1
[3] = biological target: Mcl-1 (c-myc-tagged, without the N-terminal domain and the C-terminal trans-membrane region) (human)
Sequence of Mcl-1 (c-myc-tagged, without the N-terminal domain and the C-terminal trans-membrane region) (human) (Q07820 whole entry, the tested form may be a part): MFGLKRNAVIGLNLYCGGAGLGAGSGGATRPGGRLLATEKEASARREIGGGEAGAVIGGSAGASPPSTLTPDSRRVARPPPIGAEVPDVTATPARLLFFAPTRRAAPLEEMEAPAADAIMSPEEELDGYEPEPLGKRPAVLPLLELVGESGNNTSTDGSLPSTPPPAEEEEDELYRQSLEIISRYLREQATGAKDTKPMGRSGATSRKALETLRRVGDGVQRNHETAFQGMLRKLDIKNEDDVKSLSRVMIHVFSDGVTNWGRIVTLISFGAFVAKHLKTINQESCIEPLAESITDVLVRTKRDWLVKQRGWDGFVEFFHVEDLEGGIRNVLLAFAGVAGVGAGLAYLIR

[4] = biological target: T2, Bfl-1 (c-myc-tagged, without the …)
[5] = biological target: Bcl-xL (c-myc-tagged, without the C-terminal trans-membrane region) (human)
Sequence of Bcl-xL (c-myc-tagged, without the C-terminal trans-membrane region) (human) (Q07817 whole entry): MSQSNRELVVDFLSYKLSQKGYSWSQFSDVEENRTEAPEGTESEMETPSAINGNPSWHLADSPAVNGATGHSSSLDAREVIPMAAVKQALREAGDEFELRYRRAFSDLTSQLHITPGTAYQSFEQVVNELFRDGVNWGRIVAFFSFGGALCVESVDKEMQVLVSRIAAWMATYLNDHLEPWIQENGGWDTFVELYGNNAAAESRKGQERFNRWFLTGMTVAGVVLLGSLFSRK

[6] = biological target: Bcl-2 (c-myc-tagged, without the C-terminal trans-membrane region) (human)
[7] = biological target: Bim_A2eT_I3dL, N-terminal fluorescein (N-terminal 5/6-fluorescein amidite; C-terminal amidation)

Binder | Kd [1] [nM] | Kd [2] [nM] | Kd [3] [nM] | Kd [4] [nM] | Kd [5] [nM] | Kd [6] [nM] | Kd [7] [nM]
{5/6‑fluorescein amidite}-RPEIWLGQSLQRLGDEINAYYAR-NH2 (designed binder) [B3, N-terminal fluorescein] | 16 | 1.43 | < 1 | 26 | 4.2 | 35 | –
{5/6‑fluorescein amidite}-RPEIWMGQGLRRLGDEINAYYAR-NH2 (designed binder) [A12, N-terminal fluorescein] | 210 | 4 | 2.4 | 22 | 9.8 | 42 | –
{5/6‑fluorescein amidite}-RPEIWLTQSLQRLGDEINAYYAR-NH2 (designed binder) [MS2, N-terminal fluorescein] | – | < 1 | – | – | – | – | –
B1 | – | – | – | – | – | – | 1
{5/6‑fluorescein amidite}-RPEIWLTQHLQRLGDEINAYYAR-NH2 (designed binder) [MS3, N-terminal fluorescein] | 340 | – | – | 790 | – | > 3000 | –
{5/6‑fluorescein amidite}-RPEIWMTQGLRRLGDEINAYYAR-NH2 (designed binder) [MS1, N-terminal fluorescein] | – | 2.9 | – | – | – | – | –
